How the values were obtained:
[1] = biological target: fetal muscle nicotinic acetylcholine receptor (α1β1γδ), mouse (mouse) (UniProt P04756)
[2] = biological target: adult muscle nicotinic acetylcholine receptor (α1β1εδ), mouse (mouse) (UniProt P04756)
[3] = biological target: fetal muscle nicotinic acetylcholine receptor (α1β1γδ), mouse (mouse) (UniProt P04756); remark: listed apart in the source

Substance: Fraction 4 of the tentacle venom extract (TVE) of the jellyfish Aurelia aurita
- IC50 of inhibition of ACh-elicited currents, two-electrode voltage clamp on X. laevis oocytes expressing the receptor [1]: 1770 µg/mL
- IC50 of inhibition of ACh-elicited currents, two-electrode voltage clamp on X. laevis oocytes expressing the receptor [2]: 2280 µg/mL
- percent block of ACh-elicited currents at 1.5, 3 and 4.5 μg total protein of fraction 4 (25%, 50%, 96%), voltage clamp on X. laevis oocytes [3]: 96%

From publication PMC3873694
